Test results reported in patent EP1708961B1 (Abbott Biotherapeutics Corp., dated 2011).
Changes are numbered by the printed parent chain. Names may count otherwise. “And” between values parts separate entries of the source, which are not always exact repeats. Identical values can stand only once. Each block holds one binder with its values, some of them ahead of it.

Tests used:
[1] = target: T1, recombinant human IP-10 (human, UniProt P02778 22-98); assay: competition ELISA on coated human IP-10, competitor: biotinylated MuAIP12; Exp. D
T1 construct: Bought from R&D Systems; also called CXCL10; rhIP-10
T1 sequence: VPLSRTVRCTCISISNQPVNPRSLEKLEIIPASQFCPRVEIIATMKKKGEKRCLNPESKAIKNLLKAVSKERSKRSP

[2] = target: T1, recombinant human IP-10; assay: cell-based or functional assay
[3] = target: T1, recombinant human IP-10; assay: competition ELISA on coated human IP-10, competitor: biotinylated MuAIP12; average
[4] = target: T1, recombinant human IP-10; assay: competition ELISA on coated human IP-10, competitor: biotinylated MuAIP12; Exp. C
[5] = target: T1, recombinant human IP-10; assay: competition ELISA on coated human IP-10, competitor: biotinylated MuAIP12; Exp. B
[6] = target: T1, recombinant human IP-10; assay: competition ELISA on coated human IP-10, competitor: biotinylated MuAIP12; Exp. A
[7] = target: T1, recombinant human IP-10; assay: Biacore (SPR)
[8] = target: T1, recombinant human IP-10; assay: competition ELISA on coated human IP-10, competitor: biotinylated MuAIP13; Exp. A
[9] = target: T1, recombinant human IP-10; assay: competition ELISA on coated human IP-10, competitor: biotinylated MuAIP13; Exp. C
[10] = target: T1, recombinant human IP-10; assay: competition ELISA on coated human IP-10, competitor: biotinylated MuAIP13; average
[11] = target: T1, recombinant human IP-10; assay: competition ELISA on coated human IP-10, competitor: biotinylated MuAIP13; Exp. B
[12] = target: T1, recombinant human IP-10; assay: Biacore 2000 (SPR)
[13] = target: T1, recombinant human IP-10; assay: competition ELISA on human IP-10, competitor: AIP13
[14] = target: T1, recombinant human IP-10; assay: Biacore 2000 (SPR), antibody captured by goat anti-human IgG Fc, human IP-10 injected
[15] = target: T1, recombinant human IP-10; assay: competition ELISA on coated human IP-10; Exp. D
[16] = target: T1, recombinant human IP-10; assay: Biacore (Table 3)
[17] = target: T1, recombinant human IP-10; assay: competition ELISA on coated human IP-10; Exp. B
[18] = target: T1, recombinant human IP-10; assay: competition ELISA on coated human IP-10; Exp. C
[19] = target: T1, recombinant human IP-10; assay: competition ELISA on coated human IP-10; Exp. A
[20] = target: T1, recombinant human IP-10; assay: cell-based or functional assay; remark: listed apart in the source
[21] = target: T1, recombinant human IP-10; assay: competition ELISA on coated human IP-10; average
[22] = target: T1, recombinant human IP-10; assay: competition ELISA on coated human IP-10; Exp. C; remark: listed apart in the source
[23] = target: T1, recombinant human IP-10; assay: competition ELISA on coated human IP-10; average; remark: listed apart in the source
[24] = target: T1, recombinant human IP-10; assay: competition ELISA on coated human IP-10; Exp. B; remark: listed apart in the source
[25] = target: T1, recombinant human IP-10; assay: competition ELISA on coated human IP-10; Exp. A; remark: listed apart in the source

B1: murine monoclonal antibody AIP12 (antibody, V domains shown)
VH: QIQLVQSGPELKKPGETVKISCKASGYTFTDYSMHWVKQAPGKGLKWMGWINTETGEPTYADDFKGRFAFSLETSASTAYLQINNLKNEDTATYFCARNYDYDGYFDVWGAGTTVTVSS
VL: DIQMTQSPSSLSASLGGKVTITCKASQDINKYIAWYQHKPGKGPRLLIHYTSTLQPGIPSRFSGSGSGRDYSFSISNLEPEDIATYYCLQYDNLLFTFGSGTKLEIK
notes: Mouse hybridoma antibody; also called MuAIP12
IC50 [1]: 4.2 µg/mL
inhibition of chemotaxis (IC50%) on recombinant IP-10, donor 215 [2]: 0.13 µg/mL
inhibition of chemotaxis (IC50%) on recombinant IP-10, donor 318 [2]: 0.041 µg/mL
inhibition of chemotaxis (IC50%) on recombinant IP-10, donor 1012 [2]: 0.091 µg/mL
inhibition of chemotaxis (IC50%) on recombinant IP-10, donor 1022 [2]: 0.135 µg/mL and 0.051 µg/mL and 0.086 µg/mL
inhibition of chemotaxis (IC50%) on recombinant IP-10, mean of donors [2]: 0.089 µg/mL
IC50 [3]: 5.4 µg/mL
IC50 [4]: 6.6 µg/mL
IC50 [5]: 4.4 µg/mL
IC50 [6]: 6.5 µg/mL
Kd [7]: 0.275 nM
koff [7]: 0.000282 s⁻¹
kon [7]: 1.05e+06 M⁻¹ s⁻¹

B3: HuAIP12 G104A variant antibody (antibody, human IgG1, V domains shown)
VH: EVQLVQSGAEVKKPGATVKISCKVSGYTFTDYSMHWVRQAPGKGLKWMGWINTETGEPTYADDFKGRFTFTLDTSTSTAYMELSSLRSEDTAVYYCARNYDYDAYFDVWGQGTTVTVSS
VL: DIQMTQSPSSLSASVGDRVTITCKASQDINKYIAWYQQKPGKAPKLLIHYTSTLQPGIPSRFSGSGSGRDYTFTISSLQPEDIATYYCLQYDNLLFTFGQGTKLEIK
notes: Human IgG1/kappa (gamma-1 and kappa expression vectors), transiently expressed in 293-H cells
fold faster off-rate (kd) against unmodified HuAIP12 [12]: ~2 fold
fold higher Kd against unmodified HuAIP12 [12]: > 20 fold
fold slower on-rate (ka) against unmodified HuAIP12 [12]: ~10 fold
fold weaker monovalent interaction against unmodified HuAIP12 [12]: 20 fold
IC50 [13]: 59.5 µg/mL
fold decrease in binding affinity against unmodified HuAIP12 [13]: 14.5 fold
Kd [14]: 5.98 nM
koff [14]: 0.000784 s⁻¹
kon [14]: 131000 M⁻¹ s⁻¹

B5: 12H+13L antibody (antibody, V domains shown)
VH: B3 VH with A104G
VL: B3 VL with S26D, I48L, Y50H, N93S
notes: HuAIP12 heavy chain with HuAIP13 light chain; human gamma-1/kappa
IC50 [13]: 3 µg/mL

B8: 13H+12L antibody (antibody, V domains shown)
VH: B3 VH with T55I
VL: B3 VL
notes: HuAIP13 heavy chain with HuAIP12 light chain; human gamma-1/kappa
IC50 [13]: 13.6 µg/mL

The next lines start with the values.

IC50 [8]: 2.1 µg/mL
IC50 [9]: 1.8 µg/mL
inhibition of chemotaxis (IC50%) on recombinant IP-10, donor 215 [2]: 0.26 µg/mL
inhibition of chemotaxis (IC50%) on recombinant IP-10, donor 318 [2]: 0.139 µg/mL
inhibition of chemotaxis (IC50%) on recombinant IP-10, donor 1012 [2]: 0.084 µg/mL
inhibition of chemotaxis (IC50%) on recombinant IP-10, donor 1022 [2]: 0.229 µg/mL and 0.154 µg/mL and 0.078 µg/mL
inhibition of chemotaxis (IC50%) on recombinant IP-10, mean of donors [2]: 0.157 µg/mL
IC50 [10]: 2.1 µg/mL
Kd [7]: 1.24 nM
koff [7]: 0.000196 s⁻¹
kon [7]: 158000 M⁻¹ s⁻¹
IC50 [11]: 2.4 µg/mL
B2: murine monoclonal antibody AIP13 (antibody, V domains shown)
VH: B1 VH with T55I, G104A
VL: B1 VL with S26D, K42R, I48L, Y50H, E81A, N93S
notes: Mouse hybridoma antibody; Mouse IgG1/kappa was used as its isotype control; also called MuAIP13

fold slower off-rate against unmodified HuAIP12 [12]: ~9 fold
fold stronger affinity against unmodified HuAIP12 [12]: > 9 fold
IC50 [13]: 1.6 µg/mL
Kd [14]: 0.0269 nM
koff [14]: 4.67e-05 s⁻¹
kon [14]: 1.66e+06 M⁻¹ s⁻¹
B4: HuAIP12 T55I variant antibody (antibody, V domains shown)
VH: B3 VH with T55I, A104G
VL: B3 VL

fold difference of IC50 against MuAIP12 [15]: 2.4 fold
IC50 [1]: 10.3 µg/mL
fold higher binding affinity than HuAIP13 [16]: ~2.6 fold
inhibition of chemotaxis (IC50%) on recombinant IP-10, donor 215 [2]: 0.142 µg/mL
inhibition of chemotaxis (IC50%) on recombinant IP-10, donor 318 [2]: 0.038 µg/mL
inhibition of chemotaxis (IC50%) on recombinant IP-10, donor 1012 [2]: 0.073 µg/mL
inhibition of chemotaxis (IC50%) on recombinant IP-10, mean of donors [2]: 0.086 µg/mL
fold difference of IC50 against MuAIP12 [17]: 2.4 fold
IC50 [3]: 13.5 µg/mL
fold difference of IC50 against MuAIP12 [18]: 2.2 fold
IC50 [4]: 14.5 µg/mL
fold difference of IC50 against MuAIP12 [19]: 2.9 fold
IC50 of inhibition of IP-10 mediated chemotaxis [20]: ~0.1 µg/mL
fold difference of IC50 against MuAIP12 [21]: 2.5 fold
IC50 [5]: 10.7 µg/mL
IC50 [6]: 18.6 µg/mL
IC50 [13]: 3.1 µg/mL and 4.1 µg/mL
Kd [14]: 0.251 nM
koff [14]: 0.000381 s⁻¹
kon [14]: 1.55e+06 M⁻¹ s⁻¹
Kd [7]: 0.472 nM
koff [7]: 0.000357 s⁻¹
kon [7]: 755000 M⁻¹ s⁻¹
B6: humanized monoclonal antibody HuAIP12 (antibody, human IgG1, V domains shown)
VH: B3 VH with A104G
VL: B3 VL
notes: Human IgG1/kappa; also called unmodified HuAIP12; Wild Type

IC50 [8]: 6.1 µg/mL
IC50 [9]: 4.8 µg/mL
fold difference of IC50 against MuAIP13 [22]: 2.7 fold
inhibition of chemotaxis (IC50%) on recombinant IP-10, donor 215 [2]: 0.139 µg/mL
inhibition of chemotaxis (IC50%) on recombinant IP-10, donor 318 [2]: 0.045 µg/mL
inhibition of chemotaxis (IC50%) on recombinant IP-10, donor 1012 [2]: 0.077 µg/mL
inhibition of chemotaxis (IC50%) on recombinant IP-10, mean of donors [2]: 0.086 µg/mL
IC50 [10]: 5.8 µg/mL
fold difference of IC50 against MuAIP13 [23]: 2.8 fold
fold difference of IC50 against MuAIP13 [24]: 2.7 fold
IC50 of inhibition of IP-10 mediated chemotaxis [20]: ~0.1 µg/mL
fold difference of IC50 against MuAIP13 [25]: 2.9 fold
IC50 [13]: 9.2 µg/mL
Kd [7]: 1.24 nM
koff [7]: 0.000194 s⁻¹
kon [7]: 156000 M⁻¹ s⁻¹
IC50 [11]: 6.5 µg/mL
B7: humanized monoclonal antibody HuAIP13 (antibody, human IgG1, V domains shown)
VH: B3 VH with T55I
VL: B3 VL with S26D, I48L, Y50H, N93S
notes: Human IgG1/kappa
